The DeepSol protein solubility set

assay: soluble on expression in E. coli; label from the status in PepcDB or PDB records

| Sequence | soluble on expression in E. coli |
| --- | --- |
| MGSDKIHHHHHHVIGKLTLDQLRVLVAVADTGSFTAASQAVGRAQSAVSQMMAALENAQGVQLFDRSSYRPMLTEAGRVLVAQARTTLAGASRFEAMAEHMRSGVEAELALAIDPLVPSAPFMQGLRDLSARYPDLSVSFSTEGLGGSLRRLRDGSASLGICTLLPTVPDDVVAYPLLQTAMTPVVAGNHPLASQDGPLQRGDLEPHVQLVLSDPVEPSGPNYGLTSARLWRFADLNRRLDFLLGGFGWCRMPEHLVADALADGRLVALDIKNDNAPQDGLPIYAAHARDRALGPAGRWFLDAMRECMAAA | not soluble |
| MSWIYDAHIHLSDPEYKSDIDMILNYMDLLKIKACCVSMDIETSNETMALYEKSKNVLPFIGIHPEMAQKSSEPVYELIEKNNEIISGIGEIGLDRTYINSEDEWEIQKDVFSKQLSLAEKFNKPVSIHSRKTLSDIFEILPSYKIPGILLHWFDGNKSQLKTAMENEYFVSYGPLLVYANDKQVLLSKTDPSRLLVETDGPVRFSHCFEYKTTEIMFVPSVLFCASKILHTSYENLLTQIEDNSKKFLGI | soluble |
| GSHMGGIEVLGVKTGVDSFTEVECFLNPQMGNPDEHQKGLSKSLAAEKQFTDDSPDKEQLPCYSVARIPLPNINEDLTCGNILMWEAVTVKTEVIGVTAMLNLHSGTQKTHENGAGKPIQGSNFHFFAVGGEPLELQGVLANYRTKYPAQTVTPKNATVDSQQMNTDHKAVLDKDNAYPVECWVPDPSKNENTRYFGTYTGGENVPPVLHITNTATTVLLDEQGVGPLCKADSLYVSAVDICGLFTNTSGTQQWKGLPRYFKITLRKRSVKN | soluble |
| SNTQAERSIIGMIDMFHKYTRRDDKIDKPSLLTMMKENFPNFLSACDKKGTNYLADVFEKKDKNEDKKIDFSEFLSLLGDIATDYHKQSHGAAPCSGGSQ | soluble |
| MIDADAIKMRILSMMEQLGMTPSAFADRAGISRSALTHITSGRNKVTLDMINKIMQGFDEWSAEWIIFGKGPQQSNKTAFENDLFSYSSVPEQELHTRTKDNCGIQSPSGRLEPEIKIVQMPAKQIERITVFYTDGSYQEFRSNKE | not soluble |
| MKWDEIGKNIAKEIEKEILPYFGRKDKSYVVGTSPSGDETEIFDKISEDIALKYLKSLNVNIVSEELGVIDNSSEWTVVIDPIDGSFNFINGIPFFAFCFGVFKNNEPYYGLTYEFLTKSFYEAYKGKGAYLNGRKIKVKDFNPNNIVISYYPSKKIDLEKLRNKVKRVRIFGAFGLEMCYVAKGTLDAVFDVRPKVRAVDIASSYIICKEAGALITDENGDELKFDLNATDRLNIIVANSKEMLDIILDLL | soluble |
| MIHDYHWRRGKRRKLIVMMETRMMIIMMTIKPPHDIYREQQNHHDDETKRSTKHCVTATHPWPRPAASCFRCPLRGGHHRRRPACALPHGWSVMNSCSLEHHHHHH | not soluble |
| MEIEKENGSKRLAVLIDADNAQASVLGELLAEISKYGTLNIKRAYGDWTSSNLKSWKEHLHKYAIAPIQQFNYTSGKNATDSALIIDAMDLLHDAPLEGFCLVSSDSDFTRLATRIRESGLVVYGFGEKKTPEAFVAACDKFIYTEILRQEEQRRPESSWNDSWSKSESKALKSIIQPAIKATMKEDDWVPLASIGLYISKNHPAFDPRNYGYDKLGRLIETLDFVELKKIPFKDGSSNTHVMVRLRSLEHHHHHH | not soluble |
| MGSDKIHHHHHHMSLPAMDAGIYLEETAPRALIEHNNILDNSVGVYLHGSADAMVRENKIVGDATLRVNERGNGVTVWNAPGAQVVGNDISKGRDGIFSNTSTHNTYKNNRFSDLRFAVHYMYTNDSEISGNISVGNNMGYVLMFSERLKVFDNIAVGSRDQGIMLNYVNYSDIHDNIINKAGKCVFAYNANYDKLSANHFENCQIGIHFTAAIEGTSLHDNSFINNESQVKYVSTRFLDWSEGGHGNYWSDNSAFDLNGDGFGDSAYRPNGIIDQIIWRAPVSRLLMNSPAISIVKWAQAQFPAVLPGGVVDSKPLMKPYAPKIQTRYQAMKDGLLKKVETRQLEWGRAENGSLN | not soluble |
| MTIHNFDLLVVGGGINGTGIARDAAGRHLSVCLCEQHDLASHTSSASTKLIHGGLRYLEYYEFALVSKALAEREILLRQAPHIVRPLHFILPHQPHLRPTWIIRAGLLLYDHLGFSRRTLPRSRRLNLAQHPAGQPLKQELHTGFMYCDAQVQDARLVVLNAMDAAQRGARILTRTRCVRTRRDGAHWLTELEDAQGRQQQIRTRAIVNAAGPWAVTFLDHIAQQPHQHTLRLVKGSHIVVPRLFEHEHAYIFQQPDRRIVFAIPYEQHFTLIGTTDVDYVADPANPHIDAAETMYLCNAVNSYFRQQITPEDVLWSYSGVRPLLNDGHNNASKVTRDYQLEILGNSAPLLNVFGGKLTTYRKLSEEAVNQLCVALDHPYRAWTANGPPLPGGEHHDIAALQNTLRQHRPWLPTATAQRLIHNYGTYAETLLGNATNLHTLGIHFGADLYQAEVDYLRTHEWACSAEDILWRRSKLGLHLDAHGTQRLEDYLRSCSRIPDHADTTTQLEHHHHHH | not soluble |
| MSLDQREILQKFLDEAQSKKITKEEFANEFLKLKRQSTKYKADKTYPTTVAEKPKNIKKNRYKDILPYDYSRVELSLITSDEDSSYINANFIKGVYGPKAYIATQGPLSTTLLDFWRMIWEYSVLIIGMACMEYEMGKKKCERYWAEPVEMQLEFGPFSVSCEAEKRKSDYIIRTLKVKFNSETRTIYQFHYKNWPDHDVPSSIDPILELIWDVRCYQEDDSVPICIHCSAGCGRTGVICAIDYTWMLLKDGIIPENFSVFSLIREMRTQRPSLVQTQEQYELVYNAVLELFKRQMDVIRDKHSGTESQAKHCIPEKNHTLQADSYSPNLPKSTTKAAKMMNQQRTKMEIKESSSFDFRTSEISAKEELVLHPAKSSTSFDFLELNYSFDKNADTTMKWQTKAFPIVGEPLQEGHHHHHH | not soluble |
| MFRIGQGFDVHQLVEGRPLIIGGIEIPYEKGLLGHSDADVLLHTVADACLGAVGEGDIGKHFPDTDPEFKDADSFKLLQHVWGIVKQKGYVLGNIDCTIIAQKPKMLPYIEDMRKRIAEGLEADVSQVNVKATTTEKLGFTGRAEGIAAQATVLIQKG | not soluble |
| EFSLSTLLEMTVGLASGANNEERFHRLLDAVRKAVICDCVVLMSLHNDTLTPLAMQGLTRDTLGRRFVVSEHPRLAQICSADLPVRFAADCPLPDPFDGLLLDSEDDLPMHSCMGLPLHFGEQLLGILTLDSLKPDAFDHLSPRSLEILAAIAAATLKMTLTFSELENQAKQTQLRLEELNQEAWSRDSVE | not soluble |
| MGSDKIHHHHHHMPMNRIDRLLGMITLLQAKKFVSAEKIADKFKISKRTVFRDIKAICEQGIPVGSEPNKGYFIVDGYFLPPVLFNNDEANALLLTESLVKGFADKSISKHYSNALDKIKAGLKQVDKDKLEHMQDAIKFQLPERMNNDFEYLSILQVAVSDKKIIYIDYKNNKEEVSKREIEPIGLIFYAFSWHLIGWCHHRKAYRDFKVSRIIQMKNTGVPFKKNKHMPLSEYMKELPVNY | not soluble |
| MTSKQSVSQCVKPPRPPAWIMQPPPDWQTPLNGIISPSERGLEHHHHHH | not soluble |
| MSLDHIIIRHAHAAVITAPLNTPFRIATGQHDQLENVFFQLKAHDGTCGYGEAAVASHITGETVEQTLANLQKAATQLAGRNGNDPVELIEEFRPLFVGNHAALAAFEMALFDLASRSRGIPFGALFSAAPGCAARPRFQSDITIVIGSLEEAETAARHYAGQGFTAFKIKVGKDHELDLQRVLAVKRIAPDSCLVLDANMGFDATGMRRFLQQLEQHGIRPDLLEQPVPKGDWDGLAAITREFAGSGMLICADESVGSLAAAELAVALKAVNAINIKFMKSGITESVRIAELACRNNIKLMLGAMMESSLAITAAAHFAATLGCFEVIDLDTTFFINGPLSRSPYLDQSGRFDLGAPGPGIGVALKLLEGHHHHHH | soluble |
| MEKGTPPTHDSDNWMGRAKEIGNGGWDQFQFLFFDPNGYLYAVSNDKLYKASPPQSDTDNWIARATEIGSGGWSGFKFLFFHPNGYLYAVRGQRFYKALPPVSNQD | soluble |
